Results on four molecules are retold here after US5898069A, “Phosphate assay” (Medical Research Council, priority 1993, dated 1999).

The target of one data set is T1, CPM-PBP (Escherichia coli, UniProt P0AG82, A222C).
T1 construct: A197 is located at position 197 numbering from the N-terminus of the mature PBP; made in house; host or cells: E. coli strain ANCC75, plasmid pSN5182/N, periplasm
Format: binding, E. coli. Here is the method: Analysis of the effects of Pi analogues and solution composition was performed as for MDCC-PBP.

Data set [1] deals with T2, MDCC-PBP (Escherichia coli, UniProt P0AG82, A222C).
T2 construct: A197 is located at position 197 numbering from the N-terminus of the mature PBP; made in house; host or cells: E. coli strain ANCC75, plasmid pSN5182/N, periplasm
T2 sequence (P0AG82 26-346 A222C): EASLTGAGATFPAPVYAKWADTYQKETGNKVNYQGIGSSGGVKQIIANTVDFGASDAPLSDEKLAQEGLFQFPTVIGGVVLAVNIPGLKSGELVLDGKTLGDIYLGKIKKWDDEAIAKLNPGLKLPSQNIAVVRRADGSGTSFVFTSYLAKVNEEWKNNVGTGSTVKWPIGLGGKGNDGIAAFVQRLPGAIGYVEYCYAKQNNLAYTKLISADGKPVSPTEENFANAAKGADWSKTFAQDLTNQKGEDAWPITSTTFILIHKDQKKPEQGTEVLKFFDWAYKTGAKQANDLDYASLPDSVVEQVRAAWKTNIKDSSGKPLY
Type of data set: binding, E. coli. How it is done:
The Pi dependent fluorescence change was measured for a variety of conditions at a single concentration of Pi (Table 2).
(§1) The solutions contained 2 μM MDCCPBP (except for [b] 10 μM and [c]
The fluorescence change was measured at 465 nm with excitation at
[a] The solution was preincubated with the Pi mop.

In data set [2] the test system is purine nucleoside phosphorylase. Description: Phosphorolysis of 7-methyl guanosine by purine nucleoside phosphorylase (Pi mop), absorbance change at 260 nm. Format: biochemical, bacterial. The note with it: pH 8.0, 20 mM Tris.HCl, 1 μM MgCl2, 30° C.
Data set [3] deals with T2, MDCC-PBP. The data set is described as follows: Titration of arsenate in a solution of MDCC-PBP (fluorescence change). Format: binding, E. coli. The note with it: read-out: dissociation constant. From the text: (§2) Because very small levels of Pi contamination can affect the observed change on adding Pi and because of variability in the protein activity, the maximum percent increase of fluorescence varies from 400-500%0 Although PBP is very specific for Pi (Luecke & Quiocho, 1990), it was to be used as a probe in the presence of other phosphate species, such as esters or purine nucleotides and so it was important to know at what levels these might interfere with Pi measurements. Several Pi analogues were also tested (Table 2) and only arsenate and vanadate produced significant increases. For a titration of arsenate in a solution of MDCC-PBP, the fluorescence change was used to obtain a dissociation constant of 3 μM. In all cases except arsenate, when subsequently Pi was added, the full fluorescent change was observed. The Pi dependent fluorescence change was measured for a variety of conditions at a single concentration of Pi (Table 2). The change is only slightly affected by pH (7-8) or ionic strength.

Data set [4] is described as follows: Pi dependent fluorescence change of labelled PBP in various solution compositions. The note with it: for % fluorescence increase: 100 μM Pi added. Type of data set: binding. How it is done: 3.2 μM MDCC-PBP was in 10 mM PIPES, 1 mM MgCl2 (pH 7.0) at 22° C. Pi was added to 50 μM;
as §2, §1
3.2 μM) in 20 mM PIPES (pH 7.0) except where indicated. The solutions
in B had 100 μM Pi added to produce the indicated fluorescence
change. […]

The nature of data set [5]: Stopped-flow kinetics of Pi binding to labelled PBP and its release. Here is the method:
A. 0.1 μM MDCC-PBP (mixing chamber concentration) in 10 mM PIPES, pH 7.0 was rapidly mixed at 21° C. with different concentrations of Pi in this buffer in a stopped flow apparatus, while fluorescence emission was monitored using a 455 nm cut-off filter, with excitation at 436 nm using a mercury lamp. The curve show a time course with 0.25 μM Pi. […] The best-fit single exponential (65.3 s^-1) is shown by the dashed line, almost completely hidden by the experimental curve.
B. The release kinetics were measured by rapidly mixing 0.125 μM Pi, 0.25 μM MDCC-PBP with 10 μM wild-type PBP (mixing chamber concentrations) at 22° C. Other conditions were as above The best-fit single exponential (21.4 s^-1) is shown by the dashed line, almost completely hidden by the experimental curve;
In order to use the probe to measure Pi release from ATPases and GTPases in real time it was important to know the kinetics of Pi interaction with the labeled protein. Because of the fast rates only part of the exponential is observed: a significant proportion of the reaction occurs during the dead time of the instrument (i.e. the time taken for the solution to flow between mixing and the observation chamber).
The dissociation rate of the MDCC-PBP.Pi complex was measured directly in the stopped flow apparatus by rapid mixing of this complex with excess wild-type PBP. Pi is released from the fluorescent complex and binds to the wild-type protein with a rate constant limited by the rate of release (FIG. 6B). The observed rate was 21.3±0.1 (S.E.M.) s^-1 (22° C., […], pH 7.0) for wild-type concentrations from 1.25 to 10 μM, with 0.25 μM MDCC-PBP and 0.125 μM Pi. Because this rate is constant over a range of wild-type concentrations and because the rate is much slower than that expected for Pi binding, assuming the wild-type PBP has similar rate constant to the MDCC-PBP, the observed rate constant probably represents Pi release.

Data set [6] can be described thus: Storage stability of labelled protein. Type of data set: physicochemical. An excerpt:
The Pi -sensitive labeled mutant, MDCC-PBP was purified further and tested as described in the Experimental Procedures to show it was a singly-labeled protein with no unlabeled protein or unbound fluorophore. The further purification is important as the unlabeled protein will also bind Pi. Unbound fluorophore would reduce the percentage fluorescence change by increasing the background and it might also slowly react with or bind to other components in the experimental system. The ion exchange chromatography separated MDCC-PBP completely from unlabeled PBP and unbound fluorophore. Thus the final labeled protein has a ratio of absorbance maxima, 280/430 nm of 1.8. The fluorescence excitation maximum is 425 nm and the emission maximum is 474 nm and the fluorescence change with excess Pi at pH 7.0 for the conditions in FIG. 2 is 5.3-fold with a shift of maximum emission to 464 nm. The labeled protein could be stored at […] and was stable on ice for at least 5 days.

A short description of data set [7]: Fluorescence titration of Pi to labelled PBP to obtain the dissociation constant. Type of data set: binding. The note with it: for Kd: approximate. Here is the method:
The solution at 20° C. contained […] MDCC-PBP, 1 mM MgCl2, 10 mM PIPES pH 7.0. Aliquots of Pi were added and the fluorescence emission was measured at 465 nm with excitation at 425 nm. The data was corrected for the small amount of dilution;
The solution at 25° C. in 10 mM PIPES, pH 7.0, 1 mM MgCl2 contained 0.28 μM MDCC-PBP. Aliquots of Pi were added and the fluorescence emission was measured as in FIG. 3.
The fluorescence titrations of Pi with CPM-PBP (and MDCC-PBP) were fitted to the following equations using Enzfitter software:
Ratio of fluorescence at a given [Pi ] to that at zero Pi =(Q[Ep ]+[E]-[Ep ])/[E] where
[E ]P=([P]+[E]+K-√(([P]+[E]+K)^2 -4[P][E]))/2
[E]=concentration of CPM-PBP
Q=ratio of fluorescence for CPM-PBP.Pi to that for the unliganded CPM-PBP
The product was characterized in several ways. […] The dissociation constant was determined by titrating Pi at low [MDCC-PBP] and measuring fluorescence (FIG. 4). […] Because Pi binding is very tight, these dissociation constants can be considered only approximate: the fluorescence titration could not be done at sufficiently low concentrations to obtain accurate values of Kd.

The nature of data set [8]: Competition titration of MDCC-PBP.Pi with wild-type PBP. Type of data set: binding.

Where “and” joins values, the source holds several entries; their conditions need not be identical. Equal entries are not always repeated. Where two headings read alike, the source gives them in different places.

T1 sequence (P0AG82 26-346 A222C): as above

Regarding `O=P(O)(O)O` [Pi, inorganic phosphate], the results for the “% fluorescence increase” value on CPM-PBP (pH 8) and on MDCC-PBP [1] (pH 7) were 65% and 430%, respectively. In [2], the Km turned out to be 34 µM.

With `O=[As]([O-])([O-])O.[Na+].[Na+]` [Sodium arsenate], the “% fluorescence increase” value at CPM-PBP (addition 100 μM, 6 μM CPM-PBP, 10 mM Tris.HCl pH 8.0) worked out at 25%; at MDCC-PBP [1] (addition 100 μM, 2 μM MDCC-PBP, 20 mM PIPES pH 7.0), 313%. For the same molecule, the Kd on MDCC-PBP [3] turned out to be 3000 nM.

B1: MDCC-PBP (conjugate, UniProt P0AG82 26-346, looked up)
Phosphate-binding protein PstS: EASLTGAGATFPAPVYAKWADTYQKETGNKVNYQGIGSSGGVKQIIANTVDFGASDAPLSDEKLAQEGLFQFPTVIGGVVLAVNIPGLKSGELVLDGKTLGDIYLGKIKKWDDEAIAKLNPGLKLPSQNIAVVRRADGSGTSFVFTSYLAKVNEEWKNNVGTGSTVKWPIGLGGKGNDGIAAFVQRLPGAIGYVEYAYAKQNNLAYTKLISADGKPVSPTEENFANAAKGADWSKTFAQDLTNQKGEDAWPITSTTFILIHKDQKKPEQGTEVLKFFDWAYKTGAKQANDLDYASLPDSVVEQVRAAWKTNIKDSSGKPLY
modifications: MDCC fluorophore label
B1: the “% fluorescence increase” value in [4] (10 mM PIPES (pH 7.0), 1M NaCl, 3.2 μM MDCC-PBP) was determined as 350%; in data set [4] (10 mM PIPES (pH 7.0), 2 μM MDCC-PBP), 430%; in data set [4] (10 mM Tris-HCl (pH 8.0), 2 μM MDCC-PBP) it was 405%. Further, in data set [4] (pH 7.0, FIG. 2: 3.2 μM MDCC-PBP, 10 mM PIPES, 1 mM MgCl2, 22° C., Pi 50 μM), the “fluorescence change with excess Pi” value came to 5.3 fold. The “maximum percent increase of fluorescence” value in data set [4] (varies with Pi contamination and protein activity) was 400-500%. Moreover, the “Pi binding, best-fit single exponential” value in data set [5] (0.1 μM MDCC-PBP, 0.25 μM Pi, 10 mM PIPES pH 7.0, 21° C.) turned out to be 65.3 s⁻¹. Also, in data set [5] (22° C., PIPES pH 7.0, 0.25 μM MDCC-PBP, 0.125 μM Pi mixed with excess wild-type PBP (1.25 to 10 μM)), the “dissociation (Pi release) rate of labelled PBP.Pi complex” value was 21.3 ± 0.1 s⁻¹ and 21.4 s⁻¹. The “k+ (Pi binding rate constant, one step binding model)” value in data set [5] (pH 7.0, [Pi]<5μM) amounted to 1.36e+08 M⁻¹ s⁻¹. In data set [5] (pH 7.0, [Pi]<5μM, prone to error), the “k- (from fit of observed binding rates)” value was determined as 43 s⁻¹. Further, the stable on ice entry in [6] is “at least 5 days”. Besides, in data set [7] (FIG. 3, 20° C., 1 mM MgCl2, 10 mM PIPES pH 7.0), the “protein active (from linear fluorescence response to Pi)” value is given as 75-80%. The maximum fluorescence enhancement in data set [7] (FIG. 4, 25° C., 10 mM PIPES pH 7.0, 1 mM MgCl2, 0.28 μM MDCC-PBP) stood at 415%. Also, the values for the Kd in [7] (pH7.0) and in [7] (pH 8.0) were 30 nM and 80 nM, respectively.

B2: wild-type PBP: E. coli phosphate binding protein (PBP), unlabelled wild-type (protein, UniProt P0AG82 26-346, looked up)
Phosphate-binding protein PstS: EASLTGAGATFPAPVYAKWADTYQKETGNKVNYQGIGSSGGVKQIIANTVDFGASDAPLSDEKLAQEGLFQFPTVIGGVVLAVNIPGLKSGELVLDGKTLGDIYLGKIKKWDDEAIAKLNPGLKLPSQNIAVVRRADGSGTSFVFTSYLAKVNEEWKNNVGTGSTVKWPIGLGGKGNDGIAAFVQRLPGAIGYVEYAYAKQNNLAYTKLISADGKPVSPTEENFANAAKGADWSKTFAQDLTNQKGEDAWPITSTTFILIHKDQKKPEQGTEVLKFFDWAYKTGAKQANDLDYASLPDSVVEQVRAAWKTNIKDSSGKPLY
With B2, in data set [8], the “relative affinity for Pi versus the labeled mutant (MDCC-PBP)” value is given as “two-fold tighter”.
